Data: patent publication US20060067886A1, “Gastrin receptor-avid peptide conjugates” (priority 1997, published 2006)

Experiments:
[1] = Biodistribution of radiometal-DOTA-BBN conjugates in CF1 normal mice; details: CF-1, mouse, in vivo, iv, total radioactivity; for tissue uptake dose at 1 h / dose excreted at 1 h: Avg % ID; for dose excreted at 1 h: Urine; for tissue uptake at 1 h: Avg % ID/gm
in vivo = details: SCID, mouse, in vivo, iv, 4 uCi, total radioactivity, Avg % ID; for tissue uptake dose at […]: 15 min; for tissue uptake dose at 0.5 h: 30 min
[2] = Blood, 1 hour, Blocking (excess BBN)
[3] = Kidney, 1 hour, Blocking (excess BBN)
[4] = L. Intestine, 1 hour, Blocking (excess BBN)
[5] = Liver, 1 hour, Blocking (excess BBN)
[6] = Lung, 1 hour, Blocking (excess BBN)
[7] = Muscle, 1 hour, Blocking (excess BBN)
[8] = Pancreas, 1 hour post-injection
[9] = Pancreas, 1 hour, Blocking (excess BBN)
[10] = S. Intestine, 1 hour, Blocking (excess BBN)
[11] = Spleen, 1 hour, Blocking (excess BBN)
[12] = Stomach, 1 hour, Blocking (excess BBN)

With CSCC[C@H](NC(=O)[C@H](CC(C)C)NC(=O)[C@H](Cc1cnc[nH]1)NC(=O)CNC(=O)[C@@H](NC(=O)[C@H](C)NC(=O)[C@H](Cc1c[nH]c2ccccc12)NC(=O)[C@H](CCC(N)=O)NC(=O)CCCCCCCNC(=O)CN1CCN(CC(=O)O)CCN(CC(=O)O)CCN(CC(=O)O)CC1)C(C)C)C(N)=O [111In-DOTA-8-Aoc-BBN[7-14]NH2, metal not drawn] as the molecule, how does the tissue uptake dose at 1 h [1, 2] read?
Its tissue uptake dose at 1 h is 0.98 ± 0.23 %ID.

What about the tissue uptake dose at 1 h ([1]; Carcass, 1 hour, Blocking (excess BBN)) of the same molecule?
Its tissue uptake dose at 1 h is 7.42 ± 1.35 %ID.

What about the tissue uptake dose at 1 h ([1]; Heart, 1 hour post-injection) of the same molecule?
Its tissue uptake dose at 1 h is 0.01 %ID.

What about the tissue uptake dose at 1 h ([1]; Kidney, 1 hour post-injection) of the same molecule?
The tissue uptake dose at 1 h was 1.04 ± 0.12 %ID.

What about the tissue uptake dose at 1 h [1, 3] of the same molecule?
Its tissue uptake dose at 1 h is 0.92 ± 0.13 %ID.

And the tissue uptake dose at 1 h ([1]; L. Intestine, 1 hour post-injection)?
The tissue uptake dose at 1 h was 3.02 ± 0.33 %ID.

What about the tissue uptake dose at 1 h [1, 4] of the same molecule?
The tissue uptake dose at 1 h was 0.15 ± 0.05 %ID.

And the tissue uptake dose at 1 h [1, 5]?
Its tissue uptake dose at 1 h is 0.87 ± 0.1 %ID.

And the tissue uptake dose at 1 h [1, 6]?
Its tissue uptake dose at 1 h is 0.17 ± 0.05 %ID.

What about the tissue uptake dose at 1 h ([1]; Muscle, 1 hour post-injection) of the same molecule?
Its tissue uptake dose at 1 h is 0.02 ± 0.01 %ID.

And the tissue uptake dose at 1 h [1, 7]?
Its tissue uptake dose at 1 h is 0.02 ± 0.01 %ID.

What about the tissue uptake dose at 1 h [1, 8] of the same molecule?
Its tissue uptake dose at 1 h is 10.8 ± 0.78 %ID.

And the tissue uptake dose at 1 h [1, 9]?
Its tissue uptake dose at 1 h is 0.19 ± 0.03 %ID.

What about the tissue uptake dose at 1 h ([1]; S. Intestine, 1 hour post-injection) of the same molecule?
Its tissue uptake dose at 1 h is 6.58 ± 1.1 %ID.

And the tissue uptake dose at 1 h [1, 10]?
Its tissue uptake dose at 1 h is 1.65 ± 0.19 %ID.

What about the tissue uptake dose at 1 h ([1]; Spleen, 1 hour post-injection) of the same molecule?
Its tissue uptake dose at 1 h is 0.17 ± 0.04 %ID.

What about the tissue uptake dose at 1 h [1, 11] of the same molecule?
The tissue uptake dose at 1 h was 0.02 ± 0.03 %ID.

And the tissue uptake dose at 1 h ([1]; Stomach, 1 hour post-injection)?
Its tissue uptake dose at 1 h is 0.5 ± 0.06 %ID.

And the tissue uptake dose at 1 h [1, 12]?
Its tissue uptake dose at 1 h is 0.16 ± 0.12 %ID.

What about the dose excreted at 1 h ([1]; 1 hour post-injection) of the same molecule?
Its dose excreted at 1 h is 71.6 ± 1.82%.

And the dose excreted at 1 h ([1]; 1 hour, Blocking (excess BBN))?
The dose excreted at 1 h was 88.2 ± 1.79%.

What about the tissue uptake at 1 h [1, 2] of the same molecule?
The tissue uptake at 1 h was 0.49 ± 0.15 %ID/g.

What about the tissue uptake at 1 h ([1]; Heart, 1 hour, Blocking (excess BBN)) of the same molecule?
The tissue uptake at 1 h was 0.16 ± 0.06 %ID/g.

And the tissue uptake at 1 h [1, 3]?
The tissue uptake at 1 h was 2.19 ± 0.47 %ID/g.

And the tissue uptake at 1 h [1, 4]?
The tissue uptake at 1 h was 0.16 ± 0.06 %ID/g.

And the tissue uptake at 1 h [1, 5]?
Its tissue uptake at 1 h is 0.54 ± 0.13 %ID/g.

What about the tissue uptake at 1 h [1, 6] of the same molecule?
The tissue uptake at 1 h was 0.74 ± 0.17 %ID/g.

What about the tissue uptake at 1 h ([1]; Muscle, 1 hour post-injection) of the same molecule?
Its tissue uptake at 1 h is 0.12 ± 0.05 %ID/g.

And the tissue uptake at 1 h [1, 7]?
The tissue uptake at 1 h was 0.11 ± 0.07 %ID/g.

And the tissue uptake at 1 h [1, 8]?
The tissue uptake at 1 h was 27 ± 3.97 %ID/g.

And the tissue uptake at 1 h [1, 9]?
Its tissue uptake at 1 h is 0.43 ± 0.1 %ID/g.

What about the tissue uptake at 1 h [1, 10] of the same molecule?
The tissue uptake at 1 h was 0.95 ± 0.18 %ID/g.

What about the tissue uptake at 1 h [1, 11] of the same molecule?
The tissue uptake at 1 h was 0.15 ± 0.16 %ID/g.

And the tissue uptake at 1 h [1, 12]?
The tissue uptake at 1 h was 0.32 ± 0.34 %ID/g.

What about the tissue uptake dose at […] (in vivo; Blood) of the same molecule?
The tissue uptake dose at […] was 7.92 ± 2.03 %ID.

What about the tissue uptake dose at 0.5 h (in vivo; Blood) of the same molecule?
The tissue uptake dose at 0.5 h was 2.47 ± 0.74 %ID.

And the tissue uptake dose at 1 h (in vivo; Blood)?
Its tissue uptake dose at 1 h is 0.92 ± 0.58 %ID.

And the tissue uptake dose at 48 h (in vivo; Blood, 48 hrs)?
The tissue uptake dose at 48 h was 0.12 ± 0.05 %ID.

And the tissue uptake dose at […] (in vivo; Carcass)?
The tissue uptake dose at […] was 33.1 ± 5.51 %ID.

And the tissue uptake dose at 0.5 h (in vivo; Carcass)?
The tissue uptake dose at 0.5 h was 12.3 ± 3.27 %ID.

What about the dose excreted at 24 h (in vivo; Feces, 24 hrs) of the same molecule?
Its dose excreted at 24 h is 6.1 ± 2.6%.

And the dose excreted at 48 h (in vivo; Feces, 48 hrs)?
The dose excreted at 48 h was 5.89 ± 3.81%.

And the tissue uptake dose at […] (in vivo; Heart)?
The tissue uptake dose at […] was 0.2 ± 0.07 %ID.

And the tissue uptake dose at 0.5 h (in vivo; Heart)?
Its tissue uptake dose at 0.5 h is 0.06 ± 0.02 %ID.

What about the tissue uptake dose at 4 h (in vivo; Heart) of the same molecule?
The tissue uptake dose at 4 h was 0.01 ± 0.01 %ID.

What about the tissue uptake dose at 48 h (in vivo; Heart, 48 hrs) of the same molecule?
The tissue uptake dose at 48 h was 0.01 ± 0.01 %ID.

And the tissue uptake dose at […] (in vivo; Kidney)?
Its tissue uptake dose at […] is 7.18 ± 3.16 %ID.

What about the tissue uptake dose at 0.5 h (in vivo; Kidney) of the same molecule?
The tissue uptake dose at 0.5 h was 2.45 ± 0.78 %ID.

And the tissue uptake dose at 1 h (in vivo; Kidney)?
Its tissue uptake dose at 1 h is 1.81 ± 0.37 %ID.

What about the tissue uptake dose at 4 h (in vivo; Kidney) of the same molecule?
Its tissue uptake dose at 4 h is 0.97 ± 0.08 %ID.

What about the tissue uptake dose at 48 h (in vivo; Kidney, 48 hrs) of the same molecule?
The tissue uptake dose at 48 h was 0.16 ± 0.04 %ID.

What about the tissue uptake dose at […] (in vivo; L. Intestine) of the same molecule?
Its tissue uptake dose at […] is 5.84 ± 0.9 %ID.

What about the tissue uptake dose at 0.5 h (in vivo; L. Intestine) of the same molecule?
The tissue uptake dose at 0.5 h was 4.53 ± 0.45 %ID.

And the tissue uptake dose at 1 h (in vivo; L. Intestine)?
The tissue uptake dose at 1 h was 2.18 ± 0.86 %ID.

And the tissue uptake dose at 24 h (in vivo; L. Intestine, 24 hrs)?
The tissue uptake dose at 24 h was 1.46 ± 0.42 %ID.

And the tissue uptake dose at 48 h (in vivo; L. Intestine, 48 hrs)?
Its tissue uptake dose at 48 h is 0.73 ± 0.21 %ID.

What about the tissue uptake dose at 72 h (in vivo; L. Intestine) of the same molecule?
The tissue uptake dose at 72 h was 0.41 ± 0.05 %ID.

And the tissue uptake dose at […] (in vivo; Liver)?
Its tissue uptake dose at […] is 1.85 ± 0.41 %ID.

And the tissue uptake dose at 0.5 h (in vivo; Liver)?
The tissue uptake dose at 0.5 h was 0.85 ± 0.21 %ID.

What about the tissue uptake dose at 72 h (in vivo; Liver) of the same molecule?
Its tissue uptake dose at 72 h is 0.08 ± 0.01 %ID.

What about the tissue uptake dose at […] (in vivo; Lung) of the same molecule?
Its tissue uptake dose at […] is 0.62 ± 0.25 %ID.

And the tissue uptake dose at 0.5 h (in vivo; Lung)?
The tissue uptake dose at 0.5 h was 0.2 ± 0.06 %ID.

What about the tissue uptake dose at 24 h (in vivo; Lung, 24 hrs) of the same molecule?
Its tissue uptake dose at 24 h is 0.02 ± 0.01 %ID.

And the tissue uptake dose at 48 h (in vivo; Lung, 48 hrs)?
The tissue uptake dose at 48 h was 0.01 %ID.

What about the tissue uptake dose at […] (in vivo; Muscle) of the same molecule?
The tissue uptake dose at […] was 0.16 ± 0.06 %ID.

And the tissue uptake dose at 0.5 h (in vivo; Muscle)?
Its tissue uptake dose at 0.5 h is 0.05 ± 0.02 %ID.

And the tissue uptake dose at 1 h (in vivo; Muscle)?
The tissue uptake dose at 1 h was 0.01 ± 0.01 %ID.

What about the tissue uptake dose at 24 h (in vivo; Muscle, 24 hrs) of the same molecule?
Its tissue uptake dose at 24 h is 0.01 ± 0.01 %ID.

What about the tissue uptake dose at […] (in vivo; Pancreas) of the same molecule?
The tissue uptake dose at […] was 10.3 ± 1.44 %ID.

What about the tissue uptake dose at 0.5 h (in vivo; Pancreas) of the same molecule?
The tissue uptake dose at 0.5 h was 7.37 ± 1.2 %ID.

What about the tissue uptake dose at 4 h (in vivo; Pancreas) of the same molecule?
Its tissue uptake dose at 4 h is 3.28 ± 0.8 %ID.

What about the tissue uptake dose at 48 h (in vivo; Pancreas, 48 hrs) of the same molecule?
Its tissue uptake dose at 48 h is 0.17 ± 0.09 %ID.

What about the tissue uptake dose at 72 h (in vivo; Pancreas) of the same molecule?
The tissue uptake dose at 72 h was 0.06 ± 0.02 %ID.

And the tissue uptake dose at […] (in vivo; S. Intestine)?
Its tissue uptake dose at […] is 6.98 ± 0.35 %ID.
